Data taken from patent publication US20250122303A1, “TREATMENT AND PREVENTION OF CANCER USING HER3 ANTIGEN-BINDING MOLECULES” (Hummingbird Bioscience Pte. Ltd., priority 2021, published 2025).

What was measured:
[1] = target: heterodimerisation of HER3 and HER2 (Homo sapiens, UniProt P21860); test: ELISA inhibition of HER2-HER3 interaction; type: biochemical; details: Example 4.1: His-tagged HER2 coated, biotinylated HER3
Experimental: The anti-HER3 antibodies were analysed for their ability to inhibit heterodimerisation of HER3 and HER2. Briefly, 96-well plates (Nunc, Denmark) were coated with 0.1 μg/ml His-tagged HER2 protein in PBS for 16 h at 4° C. After blocking for 1 h with 1% BSA in PBS at room temperature, recombinant biotinylated human HER3 protein was added in the presence of different concentrations of anti-HER3 antibody clone 10D1, and pates were incubated for 1 h at room temperature. Plates were subsequently washed three times, and then incubated with HRP-conjugated secondary antibody for 1 h at room temperature. After washing, plates were developed with colorimetric detection substrate 3,3′,5,5′-tetramethylbenzidine (Turbo-TMB; Pierce, USA) for 10 min. The reaction was stopped with 2M H2SO4, and OD was measured at 450 nm.
Plate-based ELISA dimerisation assays were carried out according to standard protocols. Plates were coated with 1 μg/ml HER2-Fc protein. […] Plates were then washed and incubated for 1 hour with secondary anti-HIS HRP antibody. Plates were washed, treated with TMB for 10 mins and the reaction was stopped using 2M H2SO4 stop solution. The absorbance was read at 450 nm.

human EGFR = target: T1, human EGFR (Homo sapiens, UniProt P00533); test: ELISA specificity, human EGFR; type: binding; details: antibody up to 10 μg/ml
T1 construct: purchased Sino Biological Inc., China
Experimental: ELISAs were used to determine the binding specificity of the antibodies. The antibodies were analysed for binding to human HER3 polypeptide, as well as respective mouse, rat and monkey homologues of HER3 (Sino Biological Inc., China). The antibodies were also analysed for their ability to bind to human EGFR and human HER2 (Sino Biological Inc., China).
ELISAs were carried out according to standard protocols. Briefly, 96-well plates (Nunc, Denmark) were coated with 0.1 μg/ml of target polypeptide in phosphate-buffered saline (PBS) for 16 h at 4° C. After blocking for 1 h with 1% BSA in Tris buffer saline (TBS) at room temperature, the anti-HER3 antibody was serially diluted with the highest concentration being 10 μg/ml, and added to the plate. Post 1 h incubation at room temperature, plates were washed three times with TBS containing 0.05% Tween 20 (TBS-T) and were then incubated with a HRP-conjugated anti-His antibody (Life Technologies, Inc., USA) for 1 h at room temperature. […] The reaction was stopped with 2M H2SO4, and OD was measured at 450 nm.
The antibodies were analysed for their ability to bind to human HER3 polypeptide as well as human HER1 (EGFR) and human HER2 (Sino Biological Inc., China). […]
ELISAs were carried out according to standard protocols. […] The reaction was stopped with 2M H2SO4, and OD was measured at 450 nm.

HER3-mediated signalling = test: Phospho-western blot of HER3-mediated signalling in cancer cell lines; type: cell-based, human; details: N87 and FaDu cells, 50 μg/ml 4 hrs, NRG 100 ng/ml
Experimental: Briefly, N87 and FaDu cells were seeded in wells of a 6 well plate with 10% serum at 37° C., 5% CO2. After 16 hrs, cells were starved by culture overnight in 1% FBS cell culture medium (to reduce signalling elicited by growth factors in the serum). On the following day cells were treated with 50 μg/ml anti-HER3 antibody 10D1 for 4 hrs, followed by 15 min stimulation with NRG (100 ng/ml). Proteins were then extracted, quantified using standard Bradford protein assay, fractionated by SDS-PAGE, and transferred to nitrocellulose membranes. The membranes were then blocked and immunoblotted with the following antibodies overnight at 4° C. anti-pHER3, anti-pAKT, pan anti-HER3, pan anti-AKT and anti-beta-actin. The blots were visualized via Bio-Rad Clarity Western ECL substrate, and bands were quantified using densiometric analysis; data were normalized to beta actin controls.
N87, FaDu or OvCAR8 cells were seeded in wells in a 6 well plate with 10% serum overnight at 37° C. with 5% CO2.
Before harvesting, cells were stimulated with 100 ng/ml of NRG1. Protein extracted from cell lines were quantified using standard Bradford protein assay. Protein samples (50 μg) were fractionated by SDS-PAGE and transferred to nitrocellulose membrane. […] The blots were quantified using densiometric analysis and data was normalised to beta actin. […]

[2] = target: T2, human HER3 (HEK293 HER3 O/E cells) (Homo sapiens, UniProt P21860); test: Cell surface antigen-binding by flow cytometry
T2 construct: expressed in transfected cells; host or cells: HEK293
Experimental: The cells were washed thrice with FACS buffer (PBS with 5 mM EDTA and 0.5% BSA) and resuspended in FITC-conjugated anti-FC antibody (Invitrogen, USA) for 40 min at 2-8° C. Cells were washed again and resuspended in 200 μL of FACS flow buffer (PBS with 5 mM EDTA) for flow cytometric analysis using MACSQuant 10 (Miltenyi Biotec, Germany). After acquisition, all raw data were analyzed using Flowlogic software. Cells were gated using forward and side scatter profile percentage of positive cells was determined for native and overexpressing cell populations.
The cells were washed with buffer (PBS with 2 mM EDTA and 0.5% BSA) and resuspended in FITC-conjugated anti-FC antibody (Invitrogen, USA) at 10 μg/ml for 20 min at 4° C. Cells were washed again and resuspended in 200 μL of FACS flow buffer (PBS with 5 mM EDTA) for flow cytometric analysis using MACSQuant 10 (Miltenyi Biotec, Germany). Unstained WT and transfected HEK293 cells were included in the analysis as negative controls. After acquisition, all raw data were analyzed using Flowlogic software. Cells were gated using forward and side scatter profile percentage of positive cells was determined for native and overexpressing cell populations.

- binding to human EGFR (HER1) (human EGFR): not to bind
B1: 10D1: anti-HER3 antibody clone, VH SEQ ID NO:24, VL SEQ ID NO:74; [1] of Example 2.2 (antibody, V domains shown)
VH: DVQLQESGPDLVKPSQSLSLTCTVTGYSITSGYSWHWIRQFPGNKLEWMGSIHYSGGTNYNPSLKSRISITRDTSKNQFFLQLNSVTTEDTATYFCARMTTAPRYPFDYWGQGTTLTVSS
VL: DIVMTQSQKFMSTSVGDRVSVTCKASQIVGSNVAWYQQKPGQSPKPLIYSASYRYSGVPDRFTASGSGTDFTLTITNVQSEDLAEYFCQQYSSHPLTFGAGTKLELK
- inhibition of interaction between HER2 and HER3 [1]: inhibit interaction between HER2 and HER3 in a dose-dependent fashion
- HER3 phosphorylation and downstream signalling (HER3-mediated signalling): inhibit HER3 phosphorylation and downstream signalling
- extent of binding to human HER3-expressing cells ([2]; 10 μg/ml antibody): bind to human HER3-expressing cells to a similar extent
- extent of binding to human HER3-expressing cells ([2]; 20 μg/ml antibody): bind to human HER3-expressing cells to a similar extent
